The target of one assay is T1, human Tie1 (human, UniProt P35590 22-759).
T1 construct: extracellular domain
T1 sequence (looked up): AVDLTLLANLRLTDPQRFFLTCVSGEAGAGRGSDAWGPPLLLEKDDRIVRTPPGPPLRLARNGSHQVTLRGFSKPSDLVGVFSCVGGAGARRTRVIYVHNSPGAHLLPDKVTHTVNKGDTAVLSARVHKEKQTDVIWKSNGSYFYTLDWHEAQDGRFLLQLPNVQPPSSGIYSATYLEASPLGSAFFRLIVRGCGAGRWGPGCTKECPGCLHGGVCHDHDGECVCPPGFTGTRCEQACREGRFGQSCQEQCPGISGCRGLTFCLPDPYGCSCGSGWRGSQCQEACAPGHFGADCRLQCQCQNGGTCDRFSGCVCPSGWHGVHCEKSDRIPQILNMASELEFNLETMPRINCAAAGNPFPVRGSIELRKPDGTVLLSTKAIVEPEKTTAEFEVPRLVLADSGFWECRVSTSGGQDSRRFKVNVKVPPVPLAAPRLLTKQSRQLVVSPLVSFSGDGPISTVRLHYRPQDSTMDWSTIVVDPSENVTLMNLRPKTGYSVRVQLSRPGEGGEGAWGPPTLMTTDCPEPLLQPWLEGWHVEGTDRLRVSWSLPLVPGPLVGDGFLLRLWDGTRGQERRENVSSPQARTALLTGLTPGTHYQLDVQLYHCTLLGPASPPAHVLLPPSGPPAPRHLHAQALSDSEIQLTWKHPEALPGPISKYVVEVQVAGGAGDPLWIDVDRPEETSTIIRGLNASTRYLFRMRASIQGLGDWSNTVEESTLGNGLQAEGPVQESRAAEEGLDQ
Kind of assay: ELISA: human Tie1 immobilized, serial dilutions of IgG, anti-huFc-HRP. The text has this:
(§1) Plates were washed and detected with anti-huFC-conjugated HRP secondary antibody using the methods above.
The binding ELISA was also used with immobilized Tie1 protein to assess Tie1 binding.
In general terms: ELISA stands for enzyme-linked immunosorbent assay.

In assay [1] the target is T2, recombinant human Tie2 extracellular domain (human, UniProt Q02763 23-748).
T2 construct: whole entry named; also called Recombinant human Tie2 ECD; hu Tie2
Kind of assay: SPR multi-cycle kinetics, IgG captured, kinetic analysis; human Tie2; kinetic analysis. The protocol:
(§2) Binding to recombinant human and cyno Tie2 was analyzed using a high performance multi-cycle kinetics format with a contact time of 60 seconds, a dissociation time of 60 seconds, a flow rate of 100 μl/minute and Tie2 concentrations of 5 μM, 2.5 μM, 1.25 μM, 625 nM, 313 nM and 156 nM. Tie2 concentrations of 5 μM, 2.5 μM and 1.25 μM were injected twice. Results were analyzed using Biacore T200 Evaluation Software v3.0 (GE Life Sciences). Results from all three surface densities were analyzed together using the 1:1 Binding model with multiple Rmax and the RI parameter set to zero.

For assay [2], the target named is T3, recombinant cyno Tie2 extracellular domain (cynomolgus monkey, UniProt Q02763 23-748 (human entry)).
T3 construct: also called Recombinant cyno Tie2 ECD; cy Tie2
T3 chain: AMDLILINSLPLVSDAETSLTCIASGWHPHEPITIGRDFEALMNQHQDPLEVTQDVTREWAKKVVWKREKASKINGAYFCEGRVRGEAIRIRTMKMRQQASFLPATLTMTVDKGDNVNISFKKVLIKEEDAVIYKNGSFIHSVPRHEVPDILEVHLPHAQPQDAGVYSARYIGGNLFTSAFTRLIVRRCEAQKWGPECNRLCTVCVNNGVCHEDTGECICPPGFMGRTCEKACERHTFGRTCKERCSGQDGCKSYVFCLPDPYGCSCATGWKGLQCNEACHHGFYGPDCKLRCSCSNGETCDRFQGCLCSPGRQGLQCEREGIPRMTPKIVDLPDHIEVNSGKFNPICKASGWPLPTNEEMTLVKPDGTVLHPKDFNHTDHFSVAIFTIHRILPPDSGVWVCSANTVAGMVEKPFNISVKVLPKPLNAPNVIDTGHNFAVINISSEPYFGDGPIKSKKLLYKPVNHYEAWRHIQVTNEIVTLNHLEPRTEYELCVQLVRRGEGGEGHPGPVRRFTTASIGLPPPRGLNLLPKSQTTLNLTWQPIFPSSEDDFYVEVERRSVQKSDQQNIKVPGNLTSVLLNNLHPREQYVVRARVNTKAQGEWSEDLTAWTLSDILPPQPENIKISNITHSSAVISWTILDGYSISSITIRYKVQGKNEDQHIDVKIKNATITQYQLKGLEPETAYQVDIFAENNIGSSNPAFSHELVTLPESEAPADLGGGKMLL
Put plainly: SPR, IgG captured, steady state analysis. The protocol:
as §2
For orientation: In SPR one partner is held on a chip, and binding of the other changes the refractive index at the surface.

The target in assay [3] is T2, recombinant human Tie2 extracellular …. Kind of assay: SPR, IgG captured, steady state analysis. The protocol:
as §2

The target of the next assay is T4, omalizumab.
T4 construct: Used as irrelevant coated protein; also called irrelevant Fc-containing protein; not shown: the constant regions
Put plainly: phage ELISA.

The target in another assay is T5, mouse Tie2 ECD5 (mouse, UniProt Q02858 23-442, limits assumed).
T5 construct: domain: ECD5 (Ig1, Ig2, EGF and Ig3 domains); also called mECD5
Put plainly: ELISA: mouse Tie2 ECD5 construct immobilized, serial dilutions of IgG, anti-huFc-HRP.
From the text: as §1

In assay [4] the target is T3, recombinant cyno Tie2 extracellular …. Put plainly: SPR, IgG captured, 37C. The procedure:
A human antibody capture chip was prepared using a Series S CM5 chip (GE Life Sciences), a human antibody capture kit (GE Life Sciences) and an amine coupling kit (GE Life Sciences). Antibodies diluted to 5 μg/ml in running buffer (10 mM HEPES, 150 mM NaCl, 0.05% Tween 20, 1 mM EDTA, pH 7.4) were non-covalently captured using a contact time of 20 seconds and a flow rate of 10 μl/minute. Binding to 300 nM and 1500 nM recombinant Tie2 was analyzed at 37° C. using a Single Cycle Kinetics method with a contact time of 60 seconds, a dissociation time of 120 seconds and a flow rate of 50 μl/min. Between cycles, the surface was regenerated by a 30 second injection of 3M MgCl₂ at a flow rate of 30 μl/min. Values for antibody capture levels and analyte binding levels were obtained from the Report Point Table (Biacore Evaluation Software v3.0, GE Life Sciences). […] Table 16: Experiment A; Table 17: Experiment B.

B1: Tie2.1 (antibody, human IgG1, V domains shown)
VH: EVQLVESGGGLVQPGGSLRLSCAASGFTFSNTDISWVRQAPGKGLEWVGRISPSDGNTYYADSVKGRFTISADTSKNTAYLQMNSLRAEDTAVYYCARRTRWASWAMDYWGQGTLVTVSS
VL: DIQMTQSPSSLSASVGDRVTITCRASQDVSTAVAWYQQKPGKAPKLLIYSASFLYSGVPSRFSGSGSGTDFTLTISSLQPEDFATYYCQQSYTTPPTFGQGTKVEIKR
notes: human IgG1 in all later assays; also called Ab1; Tie2.1.M100c
Take B1: the binding result with human Tie1 is given as “no binding (tested: 200 nM)”; in the assay with omalizumab it was “no binding”; with mouse Tie2 ECD5 it was “binds”. Further, the equilibrium dissociation constant (Kd) in assay [1], in assay [2] and in assay [3] was 3000 nM throughout. The “Normalized Binding Signal, 300 nM” value in assay [4] was 0.08.

In general, Kd refers to the equilibrium constant for the complex coming apart.

The values above are taken from patent US20210332142A1 (Genentech, published 2021).
